Results taken from US20170296629A1, “INHIBITOR OF EXTRACELLULAR TRAP FORMATION IN LEUKOCYTE” (KEIO UNIVERSITY, priority 2014, published 2017).

Test system: Healthy Individual's Peripheral Blood Neutrophil
Experiment: Inhibition of NET formation in neutrophils pretreated with lactoferrin-derived peptide fragment; DNA concentration in culture supernatant (Picogreen)
Type: cell-based
Conditions: human neutrophils, pretreatment at room temperature for 30 minutes
Experimental: Effect of Inhibiting NET Formation Stimulation of Healthy Individual's Peripheral Blood Neutrophil by Pretreatment with Lactoferrin-derived Peptide Fragment
For each round of experiment, 15 ml to 20 ml of peripheral blood was collected from a healthy individual by using an EDTA-containing syringe (with a needle of 18 to 22 G). After collecting the blood, in a 15 ml conical tube charged with 3 ml of Mono-Poly Resolving Medium (Cat No. DSBN100, DS Pharma Biochemical Co., Ltd.), 3.5 ml of the whole blood was gently layered over a lower layer of Mono-Poly Resolving Medium. The resultant 15 ml conical tube was centrifuged with a swing centrifuge at room temperature (15 to 30° C.) at 400×g for 20 minutes, and the conical tube was then gently taken out. An uppermost brown plasma layer and a lymphocyte/monocyte layer thereunder were removed with an aspirator or the like. In addition, a transparent layer under the lymphocyte/monocyte layer was removed as much as possible. […]
A culture supernatant was collected, centrifuged at 200×g for 10 minutes, and the thus obtained supernatant was transferred to a fresh microcentrifuge tube. The amount of DNA was measured by using Picogreen dsDNA assay reagent (P11496 Invitrogen) in accordance with the accompanying protocol.

B1: human lactoferrin: Human lactoferrin protein, Genbank NP_001186078.1 (protein, listed as Homo sapiens)
chain: MRKVRGPPVSCIKRDSPIQCIQAIAENRADAVTLDGGFIYEAGLAPYKLRPVAAEVYGTERQPRTHYYAVAVVKKGGSFQLNELQGLKSCHTGLRRTAGWNVPIGTLRPFLNWTGPPEPIEAAVARFFSASCVPGADKGQFPNLCRLCAGTGENKCAFSSQEPYFSYSGAFKCLRDGAGDVAFIRESTVFEDLSDEAERDEYELLCPDNTRKPVDKFKDCHLARVPSHAVVARSVNGKEDAIWNLLRQAQEKFGKDKSPKFQLFGSPSGQKDLLFKDSAIGFSRVPPRIDSGLYLGSGYFTAIQNLRKSEEEVAARRARVVWCAVGEQELRKCNQWSGLSEGSVTCSSASTTEDCIALVLKGEADAMSLDGGYVYTAGKCGLVPVLAENYKSQQSSDPDPNCVDRPVEGYLAVAVVRRSDTSLTWNSVKGKKSCHTAVDRTAGWNIPMGLLFNQTGSCKFDEYFSQSCAPGSDPRSNLCALCIGDEQGENKCVPNSNERYYGYTGAFRCLAENAGDVAFVKDVTVLQNTDGNNNEAWAKDLKLADFALLCLDGKRKPVTEARSCHLAMAPNHAVVSRMDKVERLKQVLLHQQAKFGRNGSDCPDKFCLFQSETKNLLFNDNTECLARLHGKTTYEKYLGPQYVAGITNLKKCSTSPLLEACEFLRK
DNA concentration in the culture supernatant (release of the DNA due to the NET): reduced in a concentration-dependent manner
